In PMC10583557 (Molecular Biology and Evolution, 2023):

Columns and labels:
[1] = target: T1, C. apon LDH (Cyanobacterium aponinum, UniProt K9Z684); assay: X-ray crystal structure of complex; assay type: binding; conditions: 2 mM each
T1 sequence (K9Z684 1-331): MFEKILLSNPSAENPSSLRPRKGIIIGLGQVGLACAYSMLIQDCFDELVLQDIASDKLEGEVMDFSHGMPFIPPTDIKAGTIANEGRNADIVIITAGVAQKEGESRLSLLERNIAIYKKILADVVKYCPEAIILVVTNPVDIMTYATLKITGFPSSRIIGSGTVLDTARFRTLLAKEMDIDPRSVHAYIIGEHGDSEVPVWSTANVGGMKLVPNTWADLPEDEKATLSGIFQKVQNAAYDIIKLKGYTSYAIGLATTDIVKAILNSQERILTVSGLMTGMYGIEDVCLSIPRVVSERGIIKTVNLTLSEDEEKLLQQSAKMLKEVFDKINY

[2] = target: Y190W C. apon LDH (Cyanobacterium aponinum); assay: AUC
[3] = target: the molecule itself; assay: SEC-MALS

With `NC(=O)C1=CN([C@@H]2O[C@H](COP(=O)(O)OP(=O)(O)OC[C@H]3O[C@@H](n4cnc5c(N)ncnc54)[C@H](O)[C@@H]3O)[C@@H](O)[C@H]2O)C=CC1` [NADH] the “X-ray crystal structure of complex” value ([1]; cofactor site, with oxamate and FBP) was “active sites of each monomer occupied with a NADH and an oxamate molecule”.

In the case of `NC(=O)C(=O)O` [oxamate], the “X-ray crystal structure of complex” value ([1]; active site, substrate analogue, with NADH and FBP) is reported as “active sites of each monomer occupied with a NADH and an oxamate molecule”.

Y190W C. apon LDH (enzyme) showed a stoichiometry N [2] of 4.

B1: Cyanobacterium aponinum lactate dehydrogenase, wild type (enzyme)
chain: T1 sequence (K9Z684 1-331)
For B1, the “stoichiometry N” value [3] was 4.

B2: ΔN-ter C. apon LDH (N-terminal sequence … deleted) (domain or fragment, Cyanobacterium aponinum, UniProt K9Z684 21-331, looked up)
chain: RKGIIIGLGQVGLACAYSMLIQDCFDELVLQDIASDKLEGEVMDFSHGMPFIPPTDIKAGTIANEGRNADIVIITAGVAQKEGESRLSLLERNIAIYKKILADVVKYCPEAIILVVTNPVDIMTYATLKITGFPSSRIIGSGTVLDTARFRTLLAKEMDIDPRSVHAYIIGEHGDSEVPVWSTANVGGMKLVPNTWADLPEDEKATLSGIFQKVQNAAYDIIKLKGYTSYAIGLATTDIVKAILNSQERILTVSGLMTGMYGIEDVCLSIPRVVSERGIIKTVNLTLSEDEEKLLQQSAKMLKEVFDKINY
In the case of B2, the “stoichiometry N” value [3] is reported as 2.
